These results are taken from patent publication US20120253009A1 (Amgen, published 2012).

The assay concerns the target T1, human mpl receptor (human, UniProt P40238 26-635).
T1 sequence (looked up): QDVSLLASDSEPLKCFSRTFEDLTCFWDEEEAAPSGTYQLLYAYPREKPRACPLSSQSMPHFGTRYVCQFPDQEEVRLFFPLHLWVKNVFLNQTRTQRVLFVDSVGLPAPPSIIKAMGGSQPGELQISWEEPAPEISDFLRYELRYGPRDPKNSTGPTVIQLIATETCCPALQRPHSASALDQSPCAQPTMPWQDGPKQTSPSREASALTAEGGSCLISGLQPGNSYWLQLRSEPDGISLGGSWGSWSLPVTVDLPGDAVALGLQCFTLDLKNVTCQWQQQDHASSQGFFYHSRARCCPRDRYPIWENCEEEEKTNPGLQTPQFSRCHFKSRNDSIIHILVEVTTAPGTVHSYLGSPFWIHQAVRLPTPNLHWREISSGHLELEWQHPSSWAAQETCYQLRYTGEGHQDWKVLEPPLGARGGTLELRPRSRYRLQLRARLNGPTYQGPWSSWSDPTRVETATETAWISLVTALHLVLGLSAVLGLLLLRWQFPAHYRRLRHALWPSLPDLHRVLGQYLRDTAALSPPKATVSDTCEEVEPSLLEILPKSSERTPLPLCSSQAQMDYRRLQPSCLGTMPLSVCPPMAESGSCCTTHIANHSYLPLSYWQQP
Briefly: cell-based or functional assay.

B1: Fc-Loop (Asym) (SEQ ID NO: 35) (Fc fusion)
chain: MDKTHTCPPCPAPELLGGPSVFLFPPKPKDTLMISRTPEVTCVVVDVSHEDPEVKFNWYVDGVEVHNAKTKPREEQYNSTYRVVSVLTVLHQDWLNGKEYKCKVSNKALPAPIEKTISKAKGQPREPQVYTLPPSRDELGGGGQGCSSGGPTLREWQQCRRMQHSGGTKNQVSLTCLVKGFYPSDIAVEWESNGQPENNYKTTPPVLDSDGSFFLYSKLTVDKSRWQQGNVFSCSVMHEALHNHYTQKSLSLSPGK
In the case of B1, the “EC50 on 32Dcl23/Mpl” value is 0.013 nM.

B2: Fc-Loop (Asym) (SEQ ID NO: 5) (Fc fusion)
chain: MDKTHTCPPCPAPELLGGPSVFLFPPKPKDTLMISRTPEVTCVVVDVSHEDPEVKFNWYVDGVEVHNAKTKPREEQYNSTYRVVSVLTVLHQDWLNGKEYKCKVSNKALPAPIEKTISKAKGQPREPQVYTLPPSRDELGGGGQGCSSGGPTLREWQQCVRMQHSGGTKNQVSLTCLVKGFYPSDIAVEWESNGQPENNYKTTPPVLDSDGSFFLYSKLTVDKSRWQQGNVFSCSVMHEALHNHYTQKSLSLSPGK
For B2, the “EC50 on 32Dcl23/Mpl” value was found to be 0.006 nM.

B3: Fc-Loop (Sym) (SEQ ID NO: 35) (Fc fusion)
chain: MDKTHTCPPCPAPELLGGPSVFLFPPKPKDTLMISRTPEVTCVVVDVSHEDPEVKFNWYVDGVEVHNAKTKPREEQYNSTYRVVSVLTVLHQDWLNGKEYKCKVSNKALPAPIEKTISKAKGQPREPQVYTLPPSRDELGGQGCSSGGPTLREWQQCRRMQHSGGTKNQVSLTCLVKGFYPSDIAVEWESNGQPENNYKTTPPVLDSDGSFFLYSKLTVDKSRWQQGNVFSCSVMHEALHNHYTQKSLSLSPGK
In the case of B3, the “EC50 on 32Dcl23/Mpl” value is 0.015 nM.

B4: Fc-Loop (Sym) (SEQ ID NO: 5) (Fc fusion)
chain: MDKTHTCPPCPAPELLGGPSVFLFPPKPKDTLMISRTPEVTCVVVDVSHEDPEVKFNWYVDGVEVHNAKTKPREEQYNSTYRVVSVLTVLHQDWLNGKEYKCKVSNKALPAPIEKTISKAKGQPREPQVYTLPPSRDELGGQGCSSGGPTLREWQQCVRMQHSGGTKNQVSLTCLVKGFYPSDIAVEWESNGQPENNYKTTPPVLDSDGSFFLYSKLTVDKSRWQQGNVFSCSVMHEALHNHYTQKSLSLSPGK
With B4, the “EC50 on 32Dcl23/Mpl” value stood at 0.01 nM.

B5: Fc-Loop (Sym) (SEQ ID NO: 6) (Fc fusion)
chain: MDKTHTCPPCPAPELLGGPSVFLFPPKPKDTLMISRTPEVTCVVVDVSHEDPEVKFNWYVDGVEVHNAKTKPREEQYNSTYRVVSVLTVLHQDWLNGKEYKCKVSNKALPAPIEKTISKAKGQPREPQVYTLPPSRDELGGQGCSSGGPTLREWQQCRRAQHSGGTKNQVSLTCLVKGFYPSDIAVEWESNGQPENNYKTTPPVLDSDGSFFLYSKLTVDKSRWQQGNVFSCSVMHEALHNHYTQKSLSLSPGK
Turning to B5, the “EC50 on 32Dcl23/Mpl” value was 0.012 nM.
